This note sets out measurements from US20180360949A1.

Assay [1] deals with CD4 (UniProt P01730). In words: Biacore CD4 binding, lot comparison (reference material). In general terms: SPR reads the build-up and loss of mass on a sensor chip optically.
Assay [2] addresses CD4 (UniProt P01730). Put plainly: Biacore CD4 binding, lot comparison (clinical trial material).

On to 1086.C gp120, for which the CD4 binding (Biacore) % in the assay with CD4 [1] stood at 100%; with CD4 [2] it was 87%.
Take TV1.C gp120: the CD4 binding (Biacore) % is 91% in the assay with CD4 [1] and 98% with CD4 [2].
